Data published in patent US20250313859.

Target: anti-human ARSA (hARSA) antibodies in cerebrospinal fluid and serum of cynomolgus macaques given AAVhu68.CB7.CI.hARSAco.rBG

B1: human ARSA enzyme expressed from the AAVhu68.CB7.CI.hARSAco.rBG transgene in cynomolgus macaques (protein)
chain: RPPNIVLIFADDLGYGDLGCYGHPSSTTPNLDQLAAGGLRFTDFYVPVSLCTPSRAALLTGRLPVRMGMYPGVLVPSSRGGLPLEEVTVAEVLAARGYLTGMAGKWHLGVGPEGAFLPPHQGFHRFLGIPYSHDQGPCQNLTCFPPATPCDGGCDQGLVPIPLLANLSVEAQPPWLPGLEARYMAFAHDLMADAQRQDRPFFLYYASHHTHYPQFSGQSFAERSGRGPFGDSLMELDAAVGTLMTAIGDLGLLEETLVIFTADNGPETMRMSRGGCSGLLRCGKGTTYEGGVREPALAFWPGHIAPGVTHELASSLDLLPTLAALAGAPLPNVTLDGFDLSPLLLGTGKSPRQSLFFYPSYPDEVRGVFAVRTGKYKAHFFTQGSAHSDTTADPACHASSSLTAHEPPLLYDLSKDPGENYNLLGGVAGATPEVLQALKQLQLLKAQLDAAVTFGPSQVARGEDPALQICCHPGCTPRPACCHCPDPHA
- ARSA activity levels in CSF (hydrolysis of 4-nitrocatechol sulfate): CSF ARSA activity levels returned to approximately baseline levels over the subsequent 28 days
